{
  "source": "paper PMC12267440",
  "about": "“Human glycogenins maintain glucose homeostasis by regulating glycogen metabolism” (Nature Communications, 2025)",
  "binders": {"B1": {"name": "Homo sapiens glycogen synthase GS1 (GYS1), amino acids 1-737, N-terminal hexahistidine tag (enzyme, human, UniProt P13807 1-737, looked up)", "chain": "MPLNRTLSMSSLPGLEDWEDEFDLENAVLFEVAWEVANKVGGIYTVLQTKAKVTGDEWGDNYFLVGPYTEQGVRTQVELLEAPTPALKRTLDSMNSKGCKVYFGRWLIEGGPLVVLLDVGASAWALERWKGELWDTCNIGVPWYDREANDAVLFGFLTTWFLGEFLAQSEEKPHVVAHFHEWLAGVGLCLCRARRLPVATIFTTHATLLGRYLCAGAVDFYNNLENFNVDKEAGERQIYHRYCMERAAAHCAHVFTTVSQITAIEAQHLLKRKPDIVTPNGLNVKKFSAMHEFQNLHAQSKARIQEFVRGHFYGHLDFNLDKTLYFFIAGRYEFSNKGADVFLEALARLNYLLRVNGSEQTVVAFFIMPARTNNFNVETLKGQAVRKQLWDTANTVKEKFGRKLYESLLVGSLPDMNKMLDKEDFTMMKRAIFATQRQSFPPVCTHNMLDDSSDPILTTIRRIGLFNSSADRVKVIFHPEFLSSTSPLLPVDYEEFVRGCHLGVFPSYYEPWGYTPAECTVMGIPSISTNLSGFGCFMEEHIADPSAYGIYILDRRFRSLDDSCSQLTSFLYSFCQQSRRQRIIQRNRTERLSDLLDWKYLGRYYMSARHMALSKAFPEHFTYEPNEADAAQGYRYPRPASVPPSPSLSRHSSPHQSEDEEDPRNGPLEEDGERYDEDEEAAKDRRNIRAPEWPRRASCTSSTSGSKRNSVDTATSSSLSTPSEPLSPTSSLGEERN", "notes": "glycogen synthase GS1 (GYS1), Homo sapiens, UniProt P13807, amino acids 1-737; No cleavage of the His tag is described; the complexes were captured on Ni-NTA by it; The cryo-EM complex is called heterooctameric (D2 symmetry imposed); source: Sf9, co-infected with a GYG baculovirus, purified (Ni-NTA, Superose 6); not shown: His6 (PreScission protease-cleavable), N-terminal, kept"}},
  "key": {"[1]": {"target": "B1", "test": "SEC; co-expressed in insect cells, captured on Ni-NTA by the His6 tag of GS, then Superose 6 16/60; SDS-PAGE and Western blot of peak fractions", "conditions": "both partners purified"}, "[2]": {"target": "the molecule itself", "test": "cryo-EM structure; purified GS•GYG2 complex from SEC peak fractions at ~2 mg/mL; Titan Krios 300 keV; D2 symmetry imposed"}, "[3]": {"target": "T1, Homo sapiens glycogen synthase GS2 (GYS2), amino acids 1-703 (human, UniProt P54840 1-703)", "T1 construct": "glycogen synthase GS2 (GYS2), Homo sapiens, UniProt P54840, amino acids 1-703; The methods say that the His tag was put at the N-terminus of 'GS' without telling GS1 and GS2 apart; source: baculovirus (Bac-to-Bac), purified with GYG2", "T1 sequence (looked up)": "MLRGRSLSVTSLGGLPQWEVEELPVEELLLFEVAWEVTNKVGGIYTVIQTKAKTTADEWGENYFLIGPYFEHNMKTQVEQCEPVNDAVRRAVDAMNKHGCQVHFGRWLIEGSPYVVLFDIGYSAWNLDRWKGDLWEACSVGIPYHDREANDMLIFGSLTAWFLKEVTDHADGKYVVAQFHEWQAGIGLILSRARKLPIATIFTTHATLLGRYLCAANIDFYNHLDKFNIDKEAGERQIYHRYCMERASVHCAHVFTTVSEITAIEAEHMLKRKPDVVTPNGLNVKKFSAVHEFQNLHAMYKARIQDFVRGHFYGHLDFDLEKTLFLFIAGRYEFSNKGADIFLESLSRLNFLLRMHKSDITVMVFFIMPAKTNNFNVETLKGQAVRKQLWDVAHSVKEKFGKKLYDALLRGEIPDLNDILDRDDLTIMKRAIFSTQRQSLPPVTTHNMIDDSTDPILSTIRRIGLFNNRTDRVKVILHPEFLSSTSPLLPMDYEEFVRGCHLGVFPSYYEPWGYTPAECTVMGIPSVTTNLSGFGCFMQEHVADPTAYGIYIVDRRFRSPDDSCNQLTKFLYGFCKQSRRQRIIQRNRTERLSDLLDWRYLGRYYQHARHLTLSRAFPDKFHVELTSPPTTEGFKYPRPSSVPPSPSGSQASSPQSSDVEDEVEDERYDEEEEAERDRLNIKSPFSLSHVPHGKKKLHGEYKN", "test": "SEC; co-expressed in insect cells, captured on Ni-NTA by the His6 tag of GS, then Superose 6 16/60; SDS-PAGE and Western blot of peak fractions", "conditions": "both partners purified"}},
  "data": [
    {"binder": "Homo sapiens wild-type GYG1 (glycogenin-1) (enzyme, human, UniProt P46976-2 1-333, looked up, autoglycosylated (smear on blots; glucose polymer on Y195), glycogenin-1 (GYG1), Homo sapiens, UniProt P46976-2; also called GYG1 (WT); source: Sf9, co-infected with GS baculovirus, purified with GS (Ni-NTA, Superose 6)) MTDQAFVTLTTNDAYAKGALVLGSSLKQHRTTRRLVVLATPQVSDSMRKVLETVFDEVIMVDVLDSGDSAHLTLMKRPELGVTLTKLHCWSLTQYSKCVFMDADTLVLANIDDLFDREELSAAPDPGWPDCFNSGVFVYQPSVETYNQLLHLASEQGSFDGGDQGILNTFFSSWATTDIRKHLPFIYNLSSISIYSYLPAFKVFGASAKVVHFLGRVKPWNYTYDPKTKSVKSEAHDPNMTHPEFLILWWNIFTTNVLPLLQQFGLVKDTCSYVNVEDVSGAISHLSLGEIPAMAQPFVSSEERKERWEQGQADYMGADSFDNIKRKLDTYLQ", "values": [
      {"measurement": "binding result", "setting": "[1]", "result": "binds"}
    ]},
    {"binder": "Homo sapiens GYG1 Y195F mutant (enzyme, human, UniProt P46976-2 1-333, looked up, glycogenin-1 (GYG1), Homo sapiens, UniProt P46976-2, autoglycosylation site mutated; source: Sf9, co-infected with GS baculovirus, purified with GS (Ni-NTA, Superose 6)) MTDQAFVTLTTNDAYAKGALVLGSSLKQHRTTRRLVVLATPQVSDSMRKVLETVFDEVIMVDVLDSGDSAHLTLMKRPELGVTLTKLHCWSLTQYSKCVFMDADTLVLANIDDLFDREELSAAPDPGWPDCFNSGVFVYQPSVETYNQLLHLASEQGSFDGGDQGILNTFFSSWATTDIRKHLPFIYNLSSISIFSYLPAFKVFGASAKVVHFLGRVKPWNYTYDPKTKSVKSEAHDPNMTHPEFLILWWNIFTTNVLPLLQQFGLVKDTCSYVNVEDVSGAISHLSLGEIPAMAQPFVSSEERKERWEQGQADYMGADSFDNIKRKLDTYLQ", "values": [
      {"measurement": "binding result", "setting": "[1]", "result": "binds"}
    ]},
    {"binder": "B1", "values": [
      {"measurement": "binding result", "setting": "[2]", "result": "binds"}
    ]},
    {"binder": "Homo sapiens wild-type GYG2 (glycogenin-2) (enzyme, human, UniProt O15488-1 1-501, looked up, glycogenin-2 (GYG2), Homo sapiens, UniProt O15488-1, full-length; Two vectors are named (MultiBac pACEBac1 with full-length GYG2; Bac-to-Bac with wild-type GYG2 O15488-1); source: Sf9, co-infected with GS baculovirus, purified with GS (Ni-NTA, Superose 6); also isolated alone) MSETEFHHGAQAGLELLRSSNSPTSASQSAGMTVTDQAFVTLATNDIYCQGALVLGQSLRRHRLTRKLVVLITPQVSSLLRVILSKVFDEVIEVNLIDSADYIHLAFLKRPELGLTLTKLHCWTLTHYSKCVFLDADTLVLSNVDELFDRGEFSAAPDPGWPDCFNSGVFVFQPSLHTHKLLLQHAMEHGSFDGADQGLLNSFFRNWSTTDIHKHLPFIYNLSSNTMYTYSPAFKQFGSSAKVVHFLGSMKPWNYKYNPQSGSVLEQGSASSSQHQAAFLHLWWTVYQNNVLPLYKSVQAGEARASPGHTLCHSDVGGPCADSASGVGEPCENSTPSAGVPCANSPLGSNQPAQGLPEPTQIVDETLSLPEGRRSEDMIACPETETPAVITCDPLSQPSPQPADFTETETILQPANKVESVSSEETFEPSQELPAEALRDPSLQDALEVDLAVSVSQISIEEKVKELSPEEERRKWEEGRIDYMGKDAFARIQEKLDRFLQ", "values": [
      {"measurement": "binding result", "setting": "[3]", "result": "binds"}
    ]},
    {"binder": "Homo sapiens GYG2 Y228F mutant (enzyme, human, UniProt O15488-1 1-501, looked up, glycogenin-2 (GYG2), Homo sapiens, UniProt O15488-1, putative autoglycosylation site mutated; also called GYG2 Y229F mutant (methods); source: baculovirus (Bac-to-Bac), purified with GS) MSETEFHHGAQAGLELLRSSNSPTSASQSAGMTVTDQAFVTLATNDIYCQGALVLGQSLRRHRLTRKLVVLITPQVSSLLRVILSKVFDEVIEVNLIDSADYIHLAFLKRPELGLTLTKLHCWTLTHYSKCVFLDADTLVLSNVDELFDRGEFSAAPDPGWPDCFNSGVFVFQPSLHTHKLLLQHAMEHGSFDGADQGLLNSFFRNWSTTDIHKHLPFIYNLSSNTMFTYSPAFKQFGSSAKVVHFLGSMKPWNYKYNPQSGSVLEQGSASSSQHQAAFLHLWWTVYQNNVLPLYKSVQAGEARASPGHTLCHSDVGGPCADSASGVGEPCENSTPSAGVPCANSPLGSNQPAQGLPEPTQIVDETLSLPEGRRSEDMIACPETETPAVITCDPLSQPSPQPADFTETETILQPANKVESVSSEETFEPSQELPAEALRDPSLQDALEVDLAVSVSQISIEEKVKELSPEEERRKWEEGRIDYMGKDAFARIQEKLDRFLQ", "values": [
      {"measurement": "binding result", "setting": "[1]", "result": "binds"}
    ]}
  ]
}
